In PMC314469, “Protein Interaction Networks by Proteome Peptide Scanning” (PLoS Biology, 2004):

Target: T1, Boi1 SH3 (BOI1_YEAST), P38041
T1 chain: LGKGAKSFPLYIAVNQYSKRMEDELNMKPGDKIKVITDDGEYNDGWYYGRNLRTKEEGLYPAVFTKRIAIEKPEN
Assay: SPOT array

| Binder | normalised SPOT signal, Boehringer light units (BLU); mean over the file's lines of this peptide |
| --- | --- |
| GRSLRKRPTSPSIS [YJR059W 48-61] | 370 |
| GYNPKTVPFVPISG [YBR118W 180-193] | 39.8 |
| HEASKSFPKAPQAS [YKL105C 877-890] | 0 |
| GYDEKGNPIPPNNW [YJL216C 137-150] | 70 |
| GQQKRFSPSLPSAV [YKL088W 110-123] | 1200 |
| GSYIKRTPKIPEKD [YDR026C 219-232] | 129 |
| GRHLKNIPRIPIFS [YLR106C 2506-2519] | 702 |
| GQIDRDKPSEPERT [YJL184W 45-58] | 15 |
| GSQWKNHPDWPFWV [YLR057W 726-739] | 133 |

Other lines, results leading:

| normalised SPOT signal, Boehringer light units (BLU); mean over the file's lines of this peptide | Binder |
| --- | --- |
| 907 | GSLVKTKPTLPLTK [YLR339C 59-72] |
| 144 | GTVTKTAPSFPQSS [YPL075W 604-617] |
| 49900 | GTTNRGPPPLPPRA [YLR144C 18-31] |
| 625 | GTGRRRSPSTPIMP [YNR047W 192-205] |
| 148 | GTRPKILPKIPTGA [YOR227W 1148-1161] |

Target: T2, Myo5 SH3 (MYO5_YEAST), Q04439
T2 chain: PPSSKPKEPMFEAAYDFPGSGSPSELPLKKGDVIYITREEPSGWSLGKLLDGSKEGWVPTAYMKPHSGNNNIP
Assay: SPOT array

| Binder | normalised SPOT signal, Boehringer light units (BLU); mean over the file's lines of this peptide |
| --- | --- |
| GRSLRKRPTSPSIS [YJR059W 48-61] | 820 |
| GYNPKTVPFVPISG [YBR118W 180-193] | 108 |
| HEASKSFPKAPQAS [YKL105C 877-890] | 289 |
| GYDEKGNPIPPNNW [YJL216C 137-150] | 96 |
| GQQKRFSPSLPSAV [YKL088W 110-123] | 728 |
| GSYIKRTPKIPEKD [YDR026C 219-232] | 206 |
| GRHLKNIPRIPIFS [YLR106C 2506-2519] | 1040 |
| GQIDRDKPSEPERT [YJL184W 45-58] | 100 |
| GSQWKNHPDWPFWV [YLR057W 726-739] | 108 |

Next, values leading:

| normalised SPOT signal, Boehringer light units (BLU); mean over the file's lines of this peptide | Binder |
| --- | --- |
| 422 | GSLVKTKPTLPLTK [YLR339C 59-72] |
| 261 | GTVTKTAPSFPQSS [YPL075W 604-617] |
| 39900 | GTTNRGPPPLPPRA [YLR144C 18-31] |
| 921 | GTGRRRSPSTPIMP [YNR047W 192-205] |
| 773 | GTRPKILPKIPTGA [YOR227W 1148-1161] |

Target: T3, Rvs167 SH3 (RV167_YEAST), P39743
T3 chain: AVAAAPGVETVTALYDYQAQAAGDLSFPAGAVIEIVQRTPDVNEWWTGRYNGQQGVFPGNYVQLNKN
Assay: SPOT array

| Binder | normalised SPOT signal, Boehringer light units (BLU); mean over the file's lines of this peptide |
| --- | --- |
| GRSLRKRPTSPSIS [YJR059W 48-61] | 1120 |
| GYNPKTVPFVPISG [YBR118W 180-193] | 25 |
| HEASKSFPKAPQAS [YKL105C 877-890] | 13.4 |
| GYDEKGNPIPPNNW [YJL216C 137-150] | 46.1 |
| GQQKRFSPSLPSAV [YKL088W 110-123] | 111 |
| GSYIKRTPKIPEKD [YDR026C 219-232] | 153 |
| GRHLKNIPRIPIFS [YLR106C 2506-2519] | 176 |
| GQIDRDKPSEPERT [YJL184W 45-58] | 47.7 |
| GSQWKNHPDWPFWV [YLR057W 726-739] | 46.8 |

Other lines, results leading:

| normalised SPOT signal, Boehringer light units (BLU); mean over the file's lines of this peptide | Binder |
| --- | --- |
| 21.1 | GSLVKTKPTLPLTK [YLR339C 59-72] |
| 63.6 | GTVTKTAPSFPQSS [YPL075W 604-617] |
| 88000 | GTTNRGPPPLPPRA [YLR144C 18-31] |
| 92.4 | GTGRRRSPSTPIMP [YNR047W 192-205] |
| 22.1 | GTRPKILPKIPTGA [YOR227W 1148-1161] |

Target: T4, Yfr024 SH3 (LSB3_YEAST), P43603
T4 chain: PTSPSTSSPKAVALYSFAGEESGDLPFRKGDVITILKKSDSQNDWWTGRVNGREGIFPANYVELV
Assay: SPOT array

| Binder | normalised SPOT signal, Boehringer light units (BLU); mean over the file's lines of this peptide |
| --- | --- |
| GRSLRKRPTSPSIS [YJR059W 48-61] | 440 |
| GYNPKTVPFVPISG [YBR118W 180-193] | 13.3 |
| HEASKSFPKAPQAS [YKL105C 877-890] | 27.3 |
| GYDEKGNPIPPNNW [YJL216C 137-150] | 0 |
| GQQKRFSPSLPSAV [YKL088W 110-123] | 697 |
| GSYIKRTPKIPEKD [YDR026C 219-232] | 436 |
| GRHLKNIPRIPIFS [YLR106C 2506-2519] | 947 |
| GQIDRDKPSEPERT [YJL184W 45-58] | 68.7 |
| GSQWKNHPDWPFWV [YLR057W 726-739] | 69.9 |

Other lines, results leading:

| normalised SPOT signal, Boehringer light units (BLU); mean over the file's lines of this peptide | Binder |
| --- | --- |
| 509 | GSLVKTKPTLPLTK [YLR339C 59-72] |
| 20 | GTVTKTAPSFPQSS [YPL075W 604-617] |
| 43600 | GTTNRGPPPLPPRA [YLR144C 18-31] |
| 802 | GTGRRRSPSTPIMP [YNR047W 192-205] |
| 432 | GTRPKILPKIPTGA [YOR227W 1148-1161] |

target: Sho1 SH3 (SHO1_YEAST), P40073; assay: SPOT array
Sequence (P40073 295-366): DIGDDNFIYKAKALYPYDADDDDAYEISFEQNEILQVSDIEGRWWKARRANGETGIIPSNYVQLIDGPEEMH

| Binder | normalised SPOT signal, Boehringer light units (BLU); mean over the file's lines of this peptide |
| --- | --- |
| GRSLRKRPTSPSIS [YJR059W 48-61] | 44.9 |
| GYNPKTVPFVPISG [YBR118W 180-193] | 25 |
| HEASKSFPKAPQAS [YKL105C 877-890] | 70.5 |
| GYDEKGNPIPPNNW [YJL216C 137-150] | 66.3 |
| GQQKRFSPSLPSAV [YKL088W 110-123] | 47.2 |
| GSYIKRTPKIPEKD [YDR026C 219-232] | 554 |
| GRHLKNIPRIPIFS [YLR106C 2506-2519] | 198 |
| GQIDRDKPSEPERT [YJL184W 45-58] | 43.8 |
| GSQWKNHPDWPFWV [YLR057W 726-739] | 14.5 |

The remaining lines, values ahead:

| normalised SPOT signal, Boehringer light units (BLU); mean over the file's lines of this peptide | Binder |
| --- | --- |
| 22.8 | GSLVKTKPTLPLTK [YLR339C 59-72] |
| 25.5 | GTVTKTAPSFPQSS [YPL075W 604-617] |
| 626 | GTTNRGPPPLPPRA [YLR144C 18-31] |
| 52.3 | GTGRRRSPSTPIMP [YNR047W 192-205] |
| 11800 | GTRPKILPKIPTGA [YOR227W 1148-1161] |

Target: T5, Boi2 SH3 (BOI2_YEAST), P39969
T5 chain: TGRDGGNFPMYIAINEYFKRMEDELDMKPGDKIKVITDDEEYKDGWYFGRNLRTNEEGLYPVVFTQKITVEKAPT
Assay: SPOT array

| Binder | normalised SPOT signal, Boehringer light units (BLU); mean over the file's lines of this peptide |
| --- | --- |
| GRSLRKRPTSPSIS [YJR059W 48-61] | 119 |
| GYNPKTVPFVPISG [YBR118W 180-193] | 5.8 |
| HEASKSFPKAPQAS [YKL105C 877-890] | 7.4 |
| GYDEKGNPIPPNNW [YJL216C 137-150] | 33.1 |
| GQQKRFSPSLPSAV [YKL088W 110-123] | 9.3 |
| GSYIKRTPKIPEKD [YDR026C 219-232] | 32.5 |
| GRHLKNIPRIPIFS [YLR106C 2506-2519] | 6.1 |
| GQIDRDKPSEPERT [YJL184W 45-58] | 21 |
| GSQWKNHPDWPFWV [YLR057W 726-739] | 9.6 |

The next lines start with the values.

| normalised SPOT signal, Boehringer light units (BLU); mean over the file's lines of this peptide | Binder |
| --- | --- |
| 25.5 | GSLVKTKPTLPLTK [YLR339C 59-72] |
| 135 | GTVTKTAPSFPQSS [YPL075W 604-617] |
| 30.6 | GTTNRGPPPLPPRA [YLR144C 18-31] |
| 52 | GTGRRRSPSTPIMP [YNR047W 192-205] |
| 27.1 | GTRPKILPKIPTGA [YOR227W 1148-1161] |

Target: T6, Yhr016c SH3 (YSC84_YEAST), P32793
T6 chain: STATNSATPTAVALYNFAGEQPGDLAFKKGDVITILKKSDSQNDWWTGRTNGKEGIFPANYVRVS
Assay: SPOT array

| Binder | normalised SPOT signal, Boehringer light units (BLU); mean over the file's lines of this peptide |
| --- | --- |
| GRSLRKRPTSPSIS [YJR059W 48-61] | 106 |
| GYNPKTVPFVPISG [YBR118W 180-193] | 37.2 |
| HEASKSFPKAPQAS [YKL105C 877-890] | 26.5 |
| GYDEKGNPIPPNNW [YJL216C 137-150] | 9.3 |
| GQQKRFSPSLPSAV [YKL088W 110-123] | 140 |
| GSYIKRTPKIPEKD [YDR026C 219-232] | 52 |
| GRHLKNIPRIPIFS [YLR106C 2506-2519] | 69.5 |
| GQIDRDKPSEPERT [YJL184W 45-58] | 37.9 |
| GSQWKNHPDWPFWV [YLR057W 726-739] | 18.7 |

More lines, now with the values ahead:

| normalised SPOT signal, Boehringer light units (BLU); mean over the file's lines of this peptide | Binder |
| --- | --- |
| 82.1 | GSLVKTKPTLPLTK [YLR339C 59-72] |
| 45.4 | GTVTKTAPSFPQSS [YPL075W 604-617] |
| 69100 | GTTNRGPPPLPPRA [YLR144C 18-31] |
| 24 | GTGRRRSPSTPIMP [YNR047W 192-205] |
| 31.6 | GTRPKILPKIPTGA [YOR227W 1148-1161] |
